Tested on: Smc5/6 holo-complex, Cy3-labelled (8 subunits) (Saccharomyces cerevisiae (expressed in W303-1a))
Assay: single-molecule optical tweezers with confocal fluorescence, lifetime
Conditions: biotin at the two ends, Single-molecule buffer not given in the material (20 nM Cy3-Smc5/6 and 2 mM ATP in Fig. 6b; ~5 or ~60 pN), entrapment: 10 mM HEPES-KOH pH 7.5, 150 mM KAc

lambda DNA tether, dsDNA (low force ~5 pN, or dsDNA regions at high force)
binding signal: 76 s

lambda DNA tether, ss-dsDNA junctions at high force (~60 pN)
binding signal (5 nM Smc5/6 then buffer only, high force): > 290 s
